According to the RNAGym collection of RNA variant scans (doi:10.1093/molbev/msab373):

B1: Azoarcus group I ribozyme (parent)
chain: GUGCCUUGCGCCGGGAAACCACGCAAGGGAUGGUGUCAAAUUCGGCGAAACCUAAGCGCCCGCCCGGGCGUAUGGCAACGCCGAGCCAAGCUUCGGCGCCUGCGCCGAUGAAGGUGUAGAGACUAGACGGCACCCACCUAAGGCAAACGCUAUGGUGAAGGCAUAGUCCAGGGAGUGGCGAAAGUCACACAAACCGG

Variants of: B1
Test: reverse-splicing fitness (ratio to wild type); higher = more active; in vitro selection; Mg2+ level not given
Summary of the method: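 An in vitro group I ribozyme library with randomized positions was T7-transcribed and gel-purified. In triplicate, 10 pmol RNA in EPPS pH 7.5 was reacted with 50 pmoles of a 30-nt RNA substrate for 1 h at 37 °C across several added MgCl2 levels (1–48 mM), then stopped with EDTA. Products were reverse transcribed from a substrate-complementary primer, PCR-amplified and sequenced (HiSeq 4000). Fitness is a variant's read proportion after selection over that before, normalised to wild type.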

| Variant | reverse-splicing fitness |
| --- | --- |
| C82U A111C A145C C169U | 0.0113 |
| C82U A111C C150A U176C | 0.0276 |
| C82U A111C C150A U176G | 0.00812 |
| C82U A111C C150A U176A | 0.0143 |
| C82U A111G A120C A145G C169G | 0.00801 |
| C82U A111G A120C A145G C169U | 0.0129 |
| C82U A111G A120C A145G C169A | 0.00713 |
| C82U A111C A145U C150G C169U U176G | 0.00671 |
| C82U A111C A145U C150G C169U U176C | 0.0119 |
| C82U A111C A145U C150G C169U U176A | 0.00807 |
| C82U A111C A145G C150U C169G U176A | 0.0107 |
| C82U A111C A145G C150U C169G U176G | 0.00674 |
| C82U A111C A145G C150U C169G U176C | 0.0158 |
| C82U A111C C150G C169U U176G | 0.00577 |
| C82U A111C C150G C169U U176A | 0.00814 |
| C82U A111C C150G C169U U176C | 0.0111 |
| C82U A111C A145G C169G | 0.00955 |
| C82U A111C A145G C169U | 0.012 |
| C82U A111C A145G C169A | 0.00937 |
| C82U A111C A145U C150G C169A U176C | 0.0103 |
| C82U A111C A145U C150G C169A U176A | 0.00909 |

| Variant | reverse-splicing fitness |
| --- | --- |
| C82U A111C A145U C150G C169A U176G | 0.00824 |
| C82U A111C C150A C169G | 0.00852 |
| C82U A111C C150A C169U | 0.0106 |
| C82U A111C C150A C169A | 0.00994 |
| C82U A111G A120C A145G C150A | 0.0129 |
| C82U A111G A120C A145G C150G | 0.00985 |
| C82U A111G A120C A145G C150U | 0.042 |
| C82U A111G A120C A145C C150A U176A | 0.00938 |
| C82U A111G A120C A145C C150A U176G | 0.0038 |
| C82U A111G A120C A145C C150A U176C | 0.00767 |
| C82U A111C A145G U176C | 0.113 |
| C82U A111C A145G U176A | 0.0861 |
| C82U A111C A145G U176G | 0.0201 |
| C82U A111G A120C A145G C150A C169G | 0.0105 |
| C82U A111G A120C A145G C150A C169U | 0.0111 |
| C82U A111G A120C A145G C150A C169A | 0.00928 |
| C82U A111C C150U C169U | 0.0116 |
| C82U A111C C150U C169A | 0.00914 |
| C82U A111C C150U C169G | 0.00731 |
| C82U A111C A145U C169G U176C | 0.0162 |
| C82U A111C A145U C169G U176G | 0.00667 |

| Variant | reverse-splicing fitness |
| --- | --- |
| C82U A111C A145U C169G U176A | 0.0145 |
| C82U A111G A120C A145G C150A U176C | 0.0246 |
| C82U A111G A120C A145G C150A U176G | 0.00727 |
| C82U A111G A120C A145G C150A U176A | 0.0119 |
| C82U A111C A145U C150U U176A | 0.0489 |
| C82U A111C A145U C150U U176G | 0.0152 |
| C82U A111C A145U C150U U176C | 0.0704 |
| C82U A111G | 0.477 |
| C82U A111C C150U C169G U176A | 0.0119 |
| C82U A111C C150U C169G U176G | 0.00752 |
| C82U A111C C150U C169G U176C | 0.0161 |
| C82U A111C A145U C150U C169U U176G | 0.00669 |
| C82U A111C A145U C150U C169U U176C | 0.0136 |
| C82U A111C A145U C150U C169U U176A | 0.0154 |
| C82U A111G A120C A145C C169U U176G | 0.0032 |
| C82U A111G A120C A145C C169U U176A | 0.0142 |
| C82U A111G A120C A145C C169U U176C | 0.0107 |
| C82U A111C A145G C169A U176G | 0.00741 |
| C82U A111C A145G C169A U176A | 0.0231 |
| C82U A111C A145G C169A U176C | 0.0298 |
| C82U A111C A145G C150U C169A U176C | 0.013 |

| Variant | reverse-splicing fitness |
| --- | --- |
| C82U A111C A145G C150U C169A U176G | 0.00752 |
| C82U A111C A145G C150U C169A U176A | 0.0141 |
| C82U A111C A145G C169U U176A | 0.0178 |
| C82U A111C A145G C169U U176G | 0.00688 |
| C82U A111C A145G C169U U176C | 0.0148 |
| C82U A111G A120C A145C C150U C169G U176G | 0.00444 |
| C82U A111G A120C A145C C150U C169G U176A | 0.0173 |
| C82U A111G A120C A145C C150U C169G U176C | 0.00801 |
| C82U A111C A145G C150G C169U | 0.00879 |
| C82U A111C A145G C150G C169A | 0.0079 |
| C82U A111C A145G C150G C169G | 0.00689 |
| C82U A111G A120C A145G C150U C169A | 0.00939 |
| C82U A111G A120C A145G C150U C169G | 0.0102 |
| C82U A111G A120C A145G C150U C169U | 0.0127 |
| C82U A111G A120C A145C C150G C169A U176A | 0.00643 |
| C82U A111G A120C A145C C150G C169A U176G | 0.00425 |
| C82U A111G A120C A145C C150G C169A U176C | 0.00573 |
| C82U A111C A145G C150G C169G U176A | 0.00912 |
| C82U A111C A145G C150G C169G U176G | 0.00571 |
| C82U A111C A145G C150G C169G U176C | 0.0117 |
| C82U A111C A145G C150A C169G | 0.00813 |
